{"source": "paper PMC8791637", "key": {"His6-sumo-kindlin": {"molecular_target": "His6-sumo-kindlin (UniProt Q96AC1)", "sequence (Q96AC1 whole entry)": "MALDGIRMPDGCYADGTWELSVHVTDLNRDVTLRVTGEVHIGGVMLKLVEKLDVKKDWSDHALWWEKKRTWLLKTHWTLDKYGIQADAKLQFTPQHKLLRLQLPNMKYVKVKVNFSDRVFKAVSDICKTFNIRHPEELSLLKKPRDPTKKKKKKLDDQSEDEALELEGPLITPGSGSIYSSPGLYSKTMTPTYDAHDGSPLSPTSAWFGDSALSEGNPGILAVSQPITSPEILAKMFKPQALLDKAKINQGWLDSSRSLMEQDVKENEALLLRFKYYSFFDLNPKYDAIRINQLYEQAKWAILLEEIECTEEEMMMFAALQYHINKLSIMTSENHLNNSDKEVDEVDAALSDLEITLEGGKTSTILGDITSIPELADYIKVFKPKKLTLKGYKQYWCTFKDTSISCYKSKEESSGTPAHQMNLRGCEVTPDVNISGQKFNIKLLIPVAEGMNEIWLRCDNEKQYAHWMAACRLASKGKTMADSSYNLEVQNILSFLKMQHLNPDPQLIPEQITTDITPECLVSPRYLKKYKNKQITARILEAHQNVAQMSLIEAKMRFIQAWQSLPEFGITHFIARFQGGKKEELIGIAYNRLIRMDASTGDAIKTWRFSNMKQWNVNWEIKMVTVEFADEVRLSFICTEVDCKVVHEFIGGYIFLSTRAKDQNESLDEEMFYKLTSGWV"}, "Focal adhesion kinase [1]": {"molecular_target": "Focal adhesion kinase (UniProt Q05397)", "sequence (Q05397 whole entry)": "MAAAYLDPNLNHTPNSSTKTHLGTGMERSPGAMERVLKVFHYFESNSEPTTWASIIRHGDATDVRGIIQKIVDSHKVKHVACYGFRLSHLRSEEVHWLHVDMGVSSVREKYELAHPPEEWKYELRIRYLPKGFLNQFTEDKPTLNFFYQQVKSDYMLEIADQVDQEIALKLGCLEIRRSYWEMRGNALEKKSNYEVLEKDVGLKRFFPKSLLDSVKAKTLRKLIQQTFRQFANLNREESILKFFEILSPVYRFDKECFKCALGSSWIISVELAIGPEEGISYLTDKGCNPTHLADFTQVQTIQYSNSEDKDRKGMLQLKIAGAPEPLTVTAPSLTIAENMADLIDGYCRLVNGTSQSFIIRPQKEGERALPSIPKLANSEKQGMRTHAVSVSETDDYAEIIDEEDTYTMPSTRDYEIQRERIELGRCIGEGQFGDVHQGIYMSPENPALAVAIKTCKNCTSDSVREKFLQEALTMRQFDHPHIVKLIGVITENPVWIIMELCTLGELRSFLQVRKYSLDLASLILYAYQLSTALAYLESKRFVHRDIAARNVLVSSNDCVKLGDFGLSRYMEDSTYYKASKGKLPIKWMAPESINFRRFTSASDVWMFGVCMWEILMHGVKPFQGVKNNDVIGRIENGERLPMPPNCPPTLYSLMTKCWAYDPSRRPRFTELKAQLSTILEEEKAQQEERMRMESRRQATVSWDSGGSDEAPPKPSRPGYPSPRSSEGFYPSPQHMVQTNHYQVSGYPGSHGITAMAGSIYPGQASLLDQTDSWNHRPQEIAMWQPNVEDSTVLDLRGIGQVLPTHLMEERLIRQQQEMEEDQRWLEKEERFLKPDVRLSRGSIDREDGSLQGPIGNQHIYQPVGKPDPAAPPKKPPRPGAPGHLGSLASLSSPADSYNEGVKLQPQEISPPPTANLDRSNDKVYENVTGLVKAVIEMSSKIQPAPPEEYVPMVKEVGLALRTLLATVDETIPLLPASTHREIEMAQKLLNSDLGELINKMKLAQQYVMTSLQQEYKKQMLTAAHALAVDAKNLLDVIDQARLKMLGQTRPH"}, "Focal adhesion kinase [2]": {"molecular_target": "Focal adhesion kinase (UniProt Q05397)", "remark": "listed apart in the source"}, "Nck": {"molecular_target": "Nck (UniProt P16333)"}, "phosphorylated Nephrin": {"molecular_target": "phosphorylated Nephrin (UniProt O60500)", "sequence (O60500 23-1241)": "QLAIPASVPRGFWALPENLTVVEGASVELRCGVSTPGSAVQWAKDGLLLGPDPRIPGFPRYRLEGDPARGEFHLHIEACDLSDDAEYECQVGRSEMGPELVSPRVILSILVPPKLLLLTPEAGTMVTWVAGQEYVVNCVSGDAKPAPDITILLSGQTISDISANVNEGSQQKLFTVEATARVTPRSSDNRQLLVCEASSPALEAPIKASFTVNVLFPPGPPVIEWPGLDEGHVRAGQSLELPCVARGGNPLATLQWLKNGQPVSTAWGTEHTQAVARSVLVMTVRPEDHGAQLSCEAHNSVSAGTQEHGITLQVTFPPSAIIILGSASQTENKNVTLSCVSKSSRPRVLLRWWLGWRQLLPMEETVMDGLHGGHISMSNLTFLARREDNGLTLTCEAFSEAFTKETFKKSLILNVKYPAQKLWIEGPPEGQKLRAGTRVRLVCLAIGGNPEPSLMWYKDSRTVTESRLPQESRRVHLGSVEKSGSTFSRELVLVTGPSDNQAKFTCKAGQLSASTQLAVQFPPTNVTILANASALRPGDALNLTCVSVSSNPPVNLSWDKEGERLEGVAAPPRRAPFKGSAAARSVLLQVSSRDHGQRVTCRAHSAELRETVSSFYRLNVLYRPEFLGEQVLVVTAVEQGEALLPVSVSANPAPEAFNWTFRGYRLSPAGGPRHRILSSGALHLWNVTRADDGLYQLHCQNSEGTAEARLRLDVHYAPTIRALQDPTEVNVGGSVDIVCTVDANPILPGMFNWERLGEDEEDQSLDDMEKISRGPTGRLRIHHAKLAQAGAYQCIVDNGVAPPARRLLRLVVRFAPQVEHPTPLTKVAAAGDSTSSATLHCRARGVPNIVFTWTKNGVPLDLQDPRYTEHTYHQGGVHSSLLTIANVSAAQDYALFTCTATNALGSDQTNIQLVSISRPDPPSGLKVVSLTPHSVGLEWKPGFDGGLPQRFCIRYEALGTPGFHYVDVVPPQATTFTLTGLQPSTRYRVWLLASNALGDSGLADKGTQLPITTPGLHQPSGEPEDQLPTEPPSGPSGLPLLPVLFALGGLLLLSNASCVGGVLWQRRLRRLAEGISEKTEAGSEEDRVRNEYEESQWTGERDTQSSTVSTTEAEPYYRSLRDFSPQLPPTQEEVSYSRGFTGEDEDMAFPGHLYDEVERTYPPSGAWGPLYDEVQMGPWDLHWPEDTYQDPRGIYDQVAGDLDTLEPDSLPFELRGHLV"}, "N-WASP": {"molecular_target": "N-WASP (UniProt O00401)", "sequence (O00401 whole entry)": "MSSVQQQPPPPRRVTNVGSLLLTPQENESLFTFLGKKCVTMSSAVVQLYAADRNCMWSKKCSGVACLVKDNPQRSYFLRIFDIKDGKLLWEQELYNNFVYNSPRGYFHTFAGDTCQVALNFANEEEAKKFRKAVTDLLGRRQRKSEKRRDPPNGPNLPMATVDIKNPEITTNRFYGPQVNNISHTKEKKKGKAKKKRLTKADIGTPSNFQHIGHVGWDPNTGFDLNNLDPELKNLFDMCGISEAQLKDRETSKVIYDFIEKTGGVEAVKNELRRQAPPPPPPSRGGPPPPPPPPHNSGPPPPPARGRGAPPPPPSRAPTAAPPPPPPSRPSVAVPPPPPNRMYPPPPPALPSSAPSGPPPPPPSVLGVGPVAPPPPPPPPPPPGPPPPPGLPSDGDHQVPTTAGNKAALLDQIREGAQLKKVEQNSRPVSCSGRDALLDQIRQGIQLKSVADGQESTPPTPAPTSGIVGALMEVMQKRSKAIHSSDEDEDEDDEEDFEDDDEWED"}}}
{"substance": "β1 integrin cytoplasmic tail-GFP (from UniProt P05556 752-798) (domain or fragment)", "values": [{"measurement": "integrin-GFP partition coefficient (PC) in droplets of 1 uM each pCas, Nck, N-WASP, FAK, paxillin and β1 integrin tail with 1 uM kindlin (PC = 1.2 without kindlin)", "setting": "His6-sumo-kindlin", "result": 3}]}
{"substance": "Focal adhesion kinase (from UniProt Q05397 1-1052) (enzyme)", "values": [{"measurement": "solution turbidity (absorbance at 350 nm) with increasing concentrations of FAK; concentration from which turbidity rises", "setting": "Focal adhesion kinase [1]", "result": 100, "unit": "nM"}]}
{"substance": "Paxillin (from UniProt P49023 1-591) (natural protein)", "values": [{"measurement": "FAK enrichment (partitioning) in droplets, 1 uM FAK with 1 uM paxillin against 1 uM FAK alone", "setting": "Focal adhesion kinase [2]", "result": 2, "unit": "fold"}]}
{"substance": "His6-sumo-kindlin (from UniProt Q96AC1 1-680) (natural protein)", "values": [{"measurement": "kindlin partition coefficient (PC) in droplets of 5 uM each phosphorylated Nephrin, Nck and N-WASP with 1 uM kindlin (10% Alexa546), lacking pCas", "setting": "Nck", "result": 1}, {"measurement": "kindlin partition coefficient (PC) in droplets of 5 uM each phosphorylated Nephrin, Nck and N-WASP with 1 uM kindlin (10% Alexa546), lacking pCas", "setting": "phosphorylated Nephrin", "result": 1}, {"measurement": "kindlin partition coefficient (PC) in droplets of 5 uM each phosphorylated Nephrin, Nck and N-WASP with 1 uM kindlin (10% Alexa546), lacking pCas", "setting": "N-WASP", "result": 1}]}
